Measurements from patent publication US20240247080A1, “GLP1/GIP/NPY2 RECEPTOR TRIPLE AGONISTS” (Boehringer Ingelheim International GmbH, priority 2022, published 2024).
Blank lines part the entries; values can stand above or below the binder they belong to. Starred links: 1 amine or outer side, 2 acyl side, 3 side chain; linkers in the order of their positions; H or OH if unused. Non-standard residues stand in square brackets, D forms with d. Groups on a side chain read outwards from the residue. No end group written: not given here. *: point of attachment. C20 diacid = O=C(O)CCCCCCCCCCCCCCCCCCC(=O)*; γGlu = O=C(O)[C@H](CCC(=O)[*:2])N[*:1]; εLys = N[C@@H](CCCCN[*:1])C(=O)[*:2]; AEEA = NCCOCCOCC(=O)O; Aib = CC(C)(N)C(=O)O

Experiments:
Assay in all cases: cell-based or functional assay
GLP-1 receptor = GLP-1 receptor (human (printed as hGLP1R), UniProt P43220 24-463)
NPY2 receptor = molecular target: T1, NPY2 receptor (human (printed as hNPY2R), UniProt P49146 1-381)
T1 sequence (looked up): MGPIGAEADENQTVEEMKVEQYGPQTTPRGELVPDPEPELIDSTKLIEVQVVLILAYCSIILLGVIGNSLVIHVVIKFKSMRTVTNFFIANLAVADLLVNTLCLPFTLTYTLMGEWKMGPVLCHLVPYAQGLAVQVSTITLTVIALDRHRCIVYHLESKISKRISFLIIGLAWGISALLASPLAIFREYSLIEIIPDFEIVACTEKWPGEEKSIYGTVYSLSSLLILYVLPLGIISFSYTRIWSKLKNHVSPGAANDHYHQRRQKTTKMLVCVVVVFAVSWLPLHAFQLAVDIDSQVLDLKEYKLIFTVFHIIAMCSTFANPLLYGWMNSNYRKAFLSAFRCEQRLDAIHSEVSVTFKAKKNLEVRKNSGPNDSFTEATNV

GIP receptor = molecular target: T2, GIP receptor (human (printed as hGIPR), UniProt P48546 22-466)
T2 sequence (looked up): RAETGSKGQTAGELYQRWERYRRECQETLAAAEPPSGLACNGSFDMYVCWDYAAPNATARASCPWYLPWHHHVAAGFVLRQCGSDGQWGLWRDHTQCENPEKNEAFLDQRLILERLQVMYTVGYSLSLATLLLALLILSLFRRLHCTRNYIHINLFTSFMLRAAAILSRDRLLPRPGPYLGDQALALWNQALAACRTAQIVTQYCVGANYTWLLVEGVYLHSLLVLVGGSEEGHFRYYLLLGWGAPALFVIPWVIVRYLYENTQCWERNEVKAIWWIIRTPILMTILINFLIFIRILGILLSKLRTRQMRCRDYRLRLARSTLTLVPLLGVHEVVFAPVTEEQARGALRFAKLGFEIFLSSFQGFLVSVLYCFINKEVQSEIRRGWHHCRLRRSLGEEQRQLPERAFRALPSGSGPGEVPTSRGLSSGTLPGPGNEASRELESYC

Binder: Y[Aib]EGTFTSDYSI[Aib]LEKQAQ[Aib]AFVQWLIK([εLys-Glu-Glu-Glu-Glu-Glu-C20 diacid])GGPSEGASLRHYYNWLTRQRY-NH2 (also: TFA salt) [Compound 240]
EC50 hGLP1R 0.5% hP (CreLuc) (GLP-1 receptor): 0.14 nM
EC50 hGLP1R 100% hP (CreLuc) (GLP-1 receptor): 6.74 nM
EC50 hNPY2R 0.5% hP (CreLuc) (NPY2 receptor): 10.7 nM
EC50 hNPY2R 100% hP (CreLuc) (NPY2 receptor): 77.5 nM
EC50 hGIPR 0.5% hP (CreLuc) (GIP receptor): 0.33 nM
EC50 hGIPR 100% hP (CreLuc) (GIP receptor): 1.97 nM

Binder: Y[Aib]EGTFTSDYSI[Aib]LEKQAQ[Aib]AFVQWLIK([εLys-γGlu-γGlu-γGlu-γGlu-γGlu-γGlu-γGlu-C20 diacid])GGPSEGASLRHYYNWLTRQRY-NH2 (also: TFA salt) [Compound 224]
EC50 hGLP1R 0.5% hP (CreLuc) (GLP-1 receptor): 0.13 nM
EC50 hGLP1R 100% hP (CreLuc) (GLP-1 receptor): 3.24 nM
EC50 hNPY2R 0.5% hP (CreLuc) (NPY2 receptor): 10.6 nM
EC50 hNPY2R 100% hP (CreLuc) (NPY2 receptor): 31.6 nM
EC50 hGIPR 0.5% hP (CreLuc) (GIP receptor): 0.43 nM
EC50 hGIPR 100% hP (CreLuc) (GIP receptor): 1.35 nM

Binder: Y[Aib]EGTFTSDYSI[Aib]LEKQAQ[Aib]AFVEWLIK([γGlu-γGlu-γGlu-γGlu-γGlu-γGlu-C20 diacid])GGPSSGASLRHYYNWLTRQRY-NH2 (also: TFA salt) [Compound 235]
EC50 hGLP1R 0.5% hP (CreLuc) (GLP-1 receptor): 0.12 nM
EC50 hGLP1R 100% hP (CreLuc) (GLP-1 receptor): 4.64 nM
EC50 hNPY2R 0.5% hP (CreLuc) (NPY2 receptor): 13.9 nM
EC50 hNPY2R 100% hP (CreLuc) (NPY2 receptor): 77.7 nM
EC50 hGIPR 0.5% hP (CreLuc) (GIP receptor): 0.34 nM
EC50 hGIPR 100% hP (CreLuc) (GIP receptor): 2.81 nM

Binder: Y[Aib]EGTFTSDYSI[Aib]LEKQAQ[Aib]AFVQWLIK([γGlu-γGlu-γGlu-γGlu-γGlu-γGlu-C20 diacid])GGPSEGASLRHYYNWLTRQRY-NH2 (also: TFA salt) [Compound 223]
EC50 hGLP1R 0.5% hP (CreLuc) (GLP-1 receptor): 0.18 nM
EC50 hGLP1R 100% hP (CreLuc) (GLP-1 receptor): 4.39 nM
EC50 hNPY2R 0.5% hP (CreLuc) (NPY2 receptor): 13.2 nM
EC50 hNPY2R 100% hP (CreLuc) (NPY2 receptor): 57.5 nM
EC50 hGIPR 0.5% hP (CreLuc) (GIP receptor): 0.39 nM
EC50 hGIPR 100% hP (CreLuc) (GIP receptor): 3.16 nM

B1: Compound 221 (peptide)
peptide: YXEGTFTSDYSIXLEKQAQXAFVEWLIKGGPSSGASLRHYYNWLTRQRY
modifications: Aib at 2, 13, 20; K28 side chain carries C20DA-gGlu-gGlu-gGlu-gGlu-gGlu-gGlu-eLys; C-terminal amide
EC50 hGLP1R 0.5% hP (CreLuc) (GLP-1 receptor): 0.11 nM
EC50 hGLP1R 100% hP (CreLuc) (GLP-1 receptor): 2.23 nM
EC50 hNPY2R 0.5% hP (CreLuc) (NPY2 receptor): 12.4 nM
EC50 hNPY2R 100% hP (CreLuc) (NPY2 receptor): 49.3 nM
EC50 hGIPR 0.5% hP (CreLuc) (GIP receptor): 0.14 nM
EC50 hGIPR 100% hP (CreLuc) (GIP receptor): 0.92 nM

Second part, the binder after the results:

EC50 hGLP1R 0.5% hP (CreLuc) (GLP-1 receptor): 0.12 nM
EC50 hGLP1R 100% hP (CreLuc) (GLP-1 receptor): 1.93 nM
EC50 hNPY2R 0.5% hP (CreLuc) (NPY2 receptor): 14.9 nM
EC50 hNPY2R 100% hP (CreLuc) (NPY2 receptor): 50.2 nM
EC50 hGIPR 0.5% hP (CreLuc) (GIP receptor): 0.28 nM
EC50 hGIPR 100% hP (CreLuc) (GIP receptor): 1.23 nM
Binder: Y[Aib]EGTFTSDYSI[Aib]LEKQAQ[Aib]AFVEWLIK([εLys-γGlu-γGlu-γGlu-γGlu-γGlu-γGlu-γGlu-C20 diacid])GGPSSGASLRHYYNWLTRQRY-NH2 (also: TFA salt) [Compound 225]

EC50 hGLP1R 0.5% hP (CreLuc) (GLP-1 receptor): 0.14 nM
EC50 hGLP1R 100% hP (CreLuc) (GLP-1 receptor): 3.28 nM
EC50 hNPY2R 0.5% hP (CreLuc) (NPY2 receptor): 19.2 nM
EC50 hNPY2R 100% hP (CreLuc) (NPY2 receptor): 53 nM
EC50 hGIPR 0.5% hP (CreLuc) (GIP receptor): 0.33 nM
EC50 hGIPR 100% hP (CreLuc) (GIP receptor): 1.43 nM
Binder: Y[Aib]EGTFTSDYSI[Aib]LEKQAQ[Aib]AFIEWLIK([AEEA-AEEA-γGlu-γGlu-γGlu-γGlu-C20 diacid])GGPSEGASLRHYYNWLTRQRY-NH2 (also: TFA salt) [Compound 231]

EC50 hGLP1R 0.5% hP (CreLuc) (GLP-1 receptor): 0.11 nM
EC50 hGLP1R 100% hP (CreLuc) (GLP-1 receptor): 4.76 nM
EC50 hNPY2R 0.5% hP (CreLuc) (NPY2 receptor): 13.6 nM
EC50 hNPY2R 100% hP (CreLuc) (NPY2 receptor): 57 nM
EC50 hGIPR 0.5% hP (CreLuc) (GIP receptor): 0.35 nM
EC50 hGIPR 100% hP (CreLuc) (GIP receptor): 1.55 nM
Binder: Y[Aib]EGTFTSDYSI[Aib]LEKQAQ[Aib]AFVQWLIK([AEEA-AEEA-Glu-Glu-Glu-Glu-C20 diacid])GGPSEGASLRHYYNWLTRQRY-NH2 (also: TFA salt) [Compound 239]

EC50 hGLP1R 0.5% hP (CreLuc) (GLP-1 receptor): 0.29 nM
EC50 hGLP1R 100% hP (CreLuc) (GLP-1 receptor): 8.23 nM
EC50 hNPY2R 0.5% hP (CreLuc) (NPY2 receptor): 15.4 nM
EC50 hNPY2R 100% hP (CreLuc) (NPY2 receptor): 59.1 nM
EC50 hGIPR 0.5% hP (CreLuc) (GIP receptor): 0.28 nM
EC50 hGIPR 100% hP (CreLuc) (GIP receptor): 1.43 nM
Binder: Y[Aib]EGTFTSDYSI[Aib]LEKQAQ[Aib]AFVEWLIK([εLys-γGlu-γGlu-γGlu-γGlu-γGlu-C20 diacid])GGPEEGASLRHYYNWLTRQRY-NH2 (also: TFA salt) [Compound 230]

EC50 hGLP1R 0.5% hP (CreLuc) (GLP-1 receptor): 0.24 nM
EC50 hGLP1R 100% hP (CreLuc) (GLP-1 receptor): 7.6 nM
EC50 hNPY2R 0.5% hP (CreLuc) (NPY2 receptor): 11.4 nM
EC50 hNPY2R 100% hP (CreLuc) (NPY2 receptor): 46.2 nM
EC50 hGIPR 0.5% hP (CreLuc) (GIP receptor): 0.43 nM
EC50 hGIPR 100% hP (CreLuc) (GIP receptor): 2.6 nM
Binder: Y[Aib]EGTFTSDYSI[Aib]LEKQAQ[Aib]AFVEWLIK([AEEA-AEEA-γGlu-γGlu-γGlu-γGlu-C20 diacid])GGPSEPASLRHYYNWLTRQRY-NH2 (also: TFA salt) [Compound 226]
